T1: human β-factor XIIa (human), P00748
T1 chain 1: NGPLSCGQR
T1 chain 2: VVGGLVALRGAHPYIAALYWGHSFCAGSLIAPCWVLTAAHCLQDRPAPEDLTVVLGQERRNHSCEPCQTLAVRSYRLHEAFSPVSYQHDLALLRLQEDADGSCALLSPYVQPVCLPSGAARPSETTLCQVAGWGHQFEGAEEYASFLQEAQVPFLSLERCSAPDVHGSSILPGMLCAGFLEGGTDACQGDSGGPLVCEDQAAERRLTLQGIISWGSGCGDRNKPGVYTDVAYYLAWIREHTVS

T2: recombinant human matriptase (human), Q9Y5Y6
T2 chain: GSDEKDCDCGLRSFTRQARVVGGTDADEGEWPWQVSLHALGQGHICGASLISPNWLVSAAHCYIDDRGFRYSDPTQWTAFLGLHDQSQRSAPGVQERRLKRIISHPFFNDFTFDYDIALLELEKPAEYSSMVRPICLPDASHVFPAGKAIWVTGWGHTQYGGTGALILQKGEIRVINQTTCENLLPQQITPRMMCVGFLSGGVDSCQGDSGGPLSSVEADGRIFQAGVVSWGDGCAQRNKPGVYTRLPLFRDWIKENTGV

T3: human plasmin (human), P00747
T3 chain: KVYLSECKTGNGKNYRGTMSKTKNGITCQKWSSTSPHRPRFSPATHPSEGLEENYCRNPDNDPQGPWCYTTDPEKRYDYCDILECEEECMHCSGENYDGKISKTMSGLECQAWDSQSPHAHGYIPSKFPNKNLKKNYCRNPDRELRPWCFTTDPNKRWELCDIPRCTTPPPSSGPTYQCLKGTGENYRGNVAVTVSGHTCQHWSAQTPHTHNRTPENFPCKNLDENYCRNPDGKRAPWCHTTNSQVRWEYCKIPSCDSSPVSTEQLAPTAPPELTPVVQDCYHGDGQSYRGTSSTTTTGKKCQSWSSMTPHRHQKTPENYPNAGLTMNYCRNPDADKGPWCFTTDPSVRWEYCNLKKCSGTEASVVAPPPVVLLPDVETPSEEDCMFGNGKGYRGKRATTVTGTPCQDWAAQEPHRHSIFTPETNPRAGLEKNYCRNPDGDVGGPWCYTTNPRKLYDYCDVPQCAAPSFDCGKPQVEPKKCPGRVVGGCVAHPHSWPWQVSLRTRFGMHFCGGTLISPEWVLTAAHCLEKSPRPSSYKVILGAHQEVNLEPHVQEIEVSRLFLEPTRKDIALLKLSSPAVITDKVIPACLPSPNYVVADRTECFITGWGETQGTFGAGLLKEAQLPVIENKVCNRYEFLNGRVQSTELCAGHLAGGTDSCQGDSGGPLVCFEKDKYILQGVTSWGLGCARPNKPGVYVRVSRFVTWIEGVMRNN


Experiments:
[1] = molecular target: T1, human β-factor XIIa (human), P00748; test: competitive protease inhibition assay, 0.5 nM FXIIa, Boc-QGR-MCA substrate (unit as printed; probably pM)
[2] = molecular target: T2, recombinant human matriptase (human), …; test: competitive protease inhibition assay (selectivity panel), human matriptase, Boc-QAR-MCA
[3] = molecular target: T1, human β-factor XIIa (human), P00748; test: competitive protease inhibition assay, Ac-QRFR-pNA substrate, Morrison Ki
[4] = molecular target: human cationic trypsin (human), P07477; test: competitive protease inhibition assay (selectivity panel), human trypsin, Boc-VPR-MCA
[5] = molecular target: T3, human plasmin (human), P00747; test: competitive protease inhibition assay (selectivity panel), human plasmin, Ac-RM(O2)YR-pNA

Ki [1] [nM] | Ki [2] [nM] | Ki [3] [nM] | Ki [4] [nM] | Ki [5] [nM] | Binder
1.09 |  |  |  |  | GGICPRFGRLCRRDSDCPGACICRATRFCGSGSD (modifications not checked) [Cyclic MCoFx6]
 | 17 | 66 | 0.08 | 31 | DGGVCPKILKKCRRDSDCPGACICRATRFCGSGS (modifications not checked) [cMCoTI-fxL5]
